One substance from patent US11447574B2 can be followed below.

The test has as its target human IL-17A (human) (UniProt Q16552).

Take “AIN457 (anti-IL-17A antibody by Novartis)”: the IC50, picomole, as defined by the cell IL6 test amounted to 1100 picomole.
